Experimental data: paper PMC2115537

Molecular target: F-actin (rabbit skeletal muscle actin filaments) (rabbit) (UniProt P68135)
Assay: co-sedimentation

Substance | initial Kd (bivalent cooperativity model) [nM] | Kd [nM]
29-kD NH2-terminal fragment of synapsin I (domain or fragment) | 168000 | –
40-kD NH2-terminal/middle fragment of synapsin I (domain or fragment) | – | 1300
phosphorylated 51/54-kD middle/tail fragment of synapsin I (domain or fragment) | – | 1700
dephosphorylated 51/54-kD middle/tail fragment of synapsin I (domain or fragment) | – | 600
